The target of the assay is ubiquitin-specific protease 7 (USP7/HAUSP), endogenous in human H1299 and HCT116 cells (human) (UniProt Q93009). The assay is described as follows: cell-based or functional assay.
UniProt Q93009, sequence (Q93009 whole entry): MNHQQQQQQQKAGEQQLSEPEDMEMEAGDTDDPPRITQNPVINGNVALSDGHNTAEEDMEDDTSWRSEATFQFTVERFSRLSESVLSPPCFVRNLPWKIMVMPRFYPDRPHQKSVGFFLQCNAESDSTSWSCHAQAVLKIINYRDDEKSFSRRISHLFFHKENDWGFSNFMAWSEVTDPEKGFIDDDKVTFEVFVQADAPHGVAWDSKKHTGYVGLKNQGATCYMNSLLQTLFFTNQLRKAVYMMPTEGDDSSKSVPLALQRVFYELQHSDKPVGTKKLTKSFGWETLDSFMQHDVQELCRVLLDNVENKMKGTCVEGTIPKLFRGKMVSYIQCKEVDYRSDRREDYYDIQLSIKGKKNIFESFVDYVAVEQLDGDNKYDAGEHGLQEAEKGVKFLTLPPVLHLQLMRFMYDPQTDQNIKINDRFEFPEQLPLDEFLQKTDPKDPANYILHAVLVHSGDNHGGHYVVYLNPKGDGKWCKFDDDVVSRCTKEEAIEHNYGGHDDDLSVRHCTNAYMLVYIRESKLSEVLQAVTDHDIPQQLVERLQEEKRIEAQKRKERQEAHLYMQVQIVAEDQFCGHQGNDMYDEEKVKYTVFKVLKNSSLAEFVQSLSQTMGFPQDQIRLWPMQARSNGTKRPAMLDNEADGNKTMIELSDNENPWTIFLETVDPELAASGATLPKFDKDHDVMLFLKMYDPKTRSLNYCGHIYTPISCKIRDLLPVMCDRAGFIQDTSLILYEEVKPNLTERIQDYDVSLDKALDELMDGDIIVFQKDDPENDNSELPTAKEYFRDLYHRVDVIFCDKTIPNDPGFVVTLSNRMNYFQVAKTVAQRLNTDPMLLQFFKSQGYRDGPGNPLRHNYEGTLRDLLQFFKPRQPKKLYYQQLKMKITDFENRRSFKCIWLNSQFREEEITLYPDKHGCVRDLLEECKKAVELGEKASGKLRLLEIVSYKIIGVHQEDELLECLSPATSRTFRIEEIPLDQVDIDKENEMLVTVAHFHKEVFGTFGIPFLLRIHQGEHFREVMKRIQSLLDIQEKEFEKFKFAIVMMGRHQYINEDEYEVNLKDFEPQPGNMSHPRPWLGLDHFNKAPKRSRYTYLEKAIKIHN

As for “DBP-S76A of the virus mutant UBM2 (H5pm4250) (from UniProt P03265 1-529)”, the USP7 diffusely distributed within the nucleus, 48 h p.i. (immunofluorescence) (% of the UBM2-infected cells) was found to be 45; the partial relocalization of USP7 into ring-like or rosette-shaped replication centers, 48 h p.i. (immunofluorescence) (% of the UBM2-infected cells) came to 55; the relocalization of USP7 into viral replication centers (immunofluorescence) (% of the infected cells) came to 100.

The values above are taken from US20230302123A1.
